Test results reported in the supplement of paper PMC10126150.
± gives the standard deviation of the averaged measurements.

Tested on: ATP
Assay: switch fluorescence ratio, 500 uM ATP over buffer (Cy3 cluster intensity, sum of 5 cycles each) (fold (ratio)); higher = stronger signal-on switching upon ATP binding; sequences stand for … in TCGTCGGCAGCGTCAGATGTGTATAAGAGACAGTTTTTTTTTTTTTTTTTTTTTTTTT…TC
Details: aptamer strand: ATP DNA aptamer (quencher-CACCTGGGGGAGTATTGCGGAGGAAGG + anchor), 100 nM annealed; ATP concentration: 500 uM
How it was run: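 Switching-strand clusters labelled with Cy3 on a modified Illumina MiSeq flow-cell were annealed to 100 nM quencher-labelled ATP aptamer, imaged in selection buffer, and re-imaged after 15 min with 500 uM ATP at 22 °C. This was done over five cycles with NaOH stripping and re-annealing in between. The fluorescence ratio is summed target-cycle over summed buffer-cycle Cy3 intensity per cluster, averaged per switch-domain sequence, excluding clusters outside 100-1000 RFU.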
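Note: ATP exposure 15 min at 22 °C before imaging.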

| Sequence | switch fluorescence ratio |
| --- | --- |
| GCGACGTGAC | 3.17 ± 0.24 |
| GCGACGTTGC | 0.999 ± 0.036 |
| GCGAGAGCTG | 0.992 ± 0.017 |
| GCGAGAGGGT | 0.974 ± 0.025 |
| GCGAGAGTGT | 0.99552 ± 0.00015 |
| GCGAGCCAGG | 2.169 ± 0.011 |
| GCGAGCGAAA | 0.982 ± 0.019 |
| GCGAGGCCCG | 0.9944 ± 0.0017 |
| GCGAGGGAGG | 1.02 ± 0.052 |
| GCGAGGGGCT | 0.9717 ± 0.0031 |
| GCGAGGTGCA | 1.03 ± 0.055 |
| GCGAGGTGGT | 1.001 ± 0.0076 |
| GCGAGGTTGA | 1.045 ± 0.0015 |
| GCGAGTAGG | 1.06 ± 0.056 |
| GCGAGTGTGA | 1 ± 0.036 |
| GCGATAAACC | 1.1929 ± 0.00026 |
| GCGATAAGAT | 1.0048 ± 0.00093 |
| GCGATACTGT | 3.08 ± 0.17 |
| GCGATAGCTC | 0.973 ± 0.043 |
| GCGATATCTT | 1.04 ± 0.029 |
| GCGATCTGGA | 1.04 ± 0.022 |
| GCGATGGGGA | 1.012 ± 0.0098 |
| GCGATTGGAG | 1.01 ± 0.034 |
| GCGCAACAGG | 1.04 ± 0.015 |
| GCGCAGACTT | 1.15 ± 0.034 |
| GCGCCAAGAG | 1.29 ± 0.11 |

| Sequence | switch fluorescence ratio |
| --- | --- |
| GCGCCGGAG | 1.0019 ± 0.00089 |
| GCGCGACGGA | 0.9905 ± 0.0014 |
| GCGCGCGACT | 1.002 ± 0.0092 |
| GCGCGCGATT | 0.997 ± 0.025 |
| GCGCGGCTGG | 1.02 ± 0.00077 |
| GCGCTACGGG | 1.01 ± 0.019 |
| GCGCTAGGTG | 2.19 ± 0.12 |
| GCGCTCATAG | 1.15 ± 0.018 |
| GCGCTCCGGG | 1.09 ± 0.072 |
| GCGCTGGGCA | 1.01 ± 0.035 |
| GCGCTTCAA | 0.971 ± 0.014 |
| GCGCTTGGGG | 0.982 ± 0.011 |
| GCGCTTTTTT | 0.9898 ± 0.00075 |
| GCGGAAAAAC | 1.02 ± 0.058 |
| GCGGAAGATC | 1.03 ± 0.021 |
| GCGGAAGGAG | 1 ± 0.016 |
| GCGGAATGGA | 1.02 ± 0.013 |
| GCGGAGAGGT | 1.03 ± 0.022 |
| GCGGAGCTTT | 1.01 ± 0.015 |
| GCGGATGCTT | 0.9718 ± 0.0056 |
| GCGGCACAAT | 1.05 ± 0.013 |
| GCGGCACGTG | 0.97 ± 0.048 |
| GCGGCCCTGG | 1.008 ± 0.0064 |
| GCGGCCTCTT | 0.993 ± 0.013 |
| GCGGCCTGGG | 1.02 ± 0.049 |
| GCGGCCTTAC | 2.42 ± 0.4 |

| Sequence | switch fluorescence ratio |
| --- | --- |
| GCGGCGGCAG | 0.9761 ± 0.0088 |
| GCGGGAAGCT | 1.05 ± 0.044 |
| GCGGGAATGA | 1 ± 0.045 |
| GCGGGAGATG | 1.04 ± 0.018 |
| GCGGGAGTCC | 1.13 ± 0.2 |
| GCGGGATATG | 0.994 ± 0.019 |
| GCGGGATGGG | 1.08 ± 0.07 |
| GCGGGCGGCC | 0.9812 ± 0.0082 |
| GCGGGCTGAA | 0.962 ± 0.014 |
| GCGGGGCAGC | 1.001 ± 0.0068 |
| GCGGGGCCAC | 1.2 ± 0.26 |
| GCGGGGGAAA | 1.02 ± 0.09 |
| GCGGGGGAG | 1.01 ± 0.059 |
| GCGGGGGCGT | 1 ± 0.03 |
| GCGGGGGGAT | 1.02 ± 0.017 |
| GCGGGGGGGA | 1.01 ± 0.038 |
| GCGGGGGTTA | 0.994 ± 0.018 |
| GCGGGGGTTT | 1.15 ± 0.28 |
| GCGGGGTATG | 0.9908 ± 0.008 |
| GCGGGGTCCG | 0.97126 ± 0.00059 |
| GCGGGGTTTC | 1.03 ± 0.059 |
| GCGGGTAGCA | 1.04 ± 0.029 |
| GCGGGTTACT | 1.053 ± 0.0028 |
| GCGGTAGCAG | 0.979 ± 0.024 |
| GCGGTAGTAC | 1.14 ± 0.013 |
| GCGGTCGGGC | 0.9952 ± 0.0076 |

| Sequence | switch fluorescence ratio |
| --- | --- |
| GCGGTGAGAA | 0.983 ± 0.028 |
| GCGGTGAGGC | 0.9709 ± 0.0056 |
| GCGGTGATGG | 1 ± 0.035 |
| GCGGTGCGGG | 0.9878 ± 0.0042 |
| GCGGTGGGTT | 0.9862 ± 0.0096 |
| GCGGTGTTTT | 1.03 ± 0.05 |
| GCGGTTCCTC | 1.05 ± 0.027 |
| GCGGTTGGAA | 0.9927 ± 0.0034 |
| GCGGTTTTTT | 1.22 ± 0.35 |
| GCGTAACAGT | 0.964 ± 0.045 |
| GCGTAAGTGC | 1.092 ± 0.006 |
| GCGTACCAAT | 1.067 ± 0.0033 |
| GCGTAGGGG | 0.967 ± 0.028 |
| GCGTATAGGA | 1.01 ± 0.035 |
| GCGTATAGGG | 0.964 ± 0.033 |
| GCGTATTGAG | 1.02 ± 0.022 |
| GCGTATTTTT | 1.01 ± 0.029 |
| GCGTCAATTA | 1.08 ± 0.03 |
| GCGTCGATTA | 0.96 ± 0.015 |
| GCGTCTAGGA | 0.9839 ± 0.0033 |
| GCGTCTATGA | 1 ± 0.016 |
| GCGTGAGCGA | 0.985 ± 0.042 |
| GCGTGATTTG | 0.9959 ± 0.0045 |
| GCGTGGAGA | 1 ± 0.03 |
| GCGTGGGGGT | 1.01 ± 0.012 |
| GCGTTAACTC | 1.08 ± 0.026 |

| Sequence | switch fluorescence ratio |
| --- | --- |
| GCGTTAAGGG | 0.964 ± 0.053 |
| GCGTTAAGTA | 1.005 ± 0.0085 |
| GCGTTAAGTT | 0.984 ± 0.035 |
| GCGTTAGGCG | 1.01 ± 0.044 |
| GCGTTATAAG | 1.01 ± 0.049 |
| GCGTTCAGGC | 0.994 ± 0.063 |
| GCGTTCCTTA | 0.971 ± 0.024 |
| GCGTTGCCAG | 0.9816 ± 0.0081 |
| GCGTTTCCTC | 1.08 ± 0.033 |
| GCGTTTCGGA | 1 ± 0.02 |
| GCGTTTGCAT | 1.03 ± 0.034 |
| GCGTTTTTGG | 0.998 ± 0.029 |
| GCGTTTTTTT | 0.98972 ± 0.0007 |
| GCTAAAACCT | 2.25 ± 0.23 |
| GCTAAATTCC | 1.11 ± 0.027 |
| GCTAACAGAG | 0.984 ± 0.035 |
| GCTAACCCTT | 1.06 ± 0.0036 |
| GCTAACGGAG | 1.0112 ± 0.00048 |
| GCTAATTGGC | 1.04 ± 0.098 |
| GCTACCGTTT | 1.04 ± 0.041 |
| GCTACGACGG | 1.05 ± 0.012 |
| GCTACTGGCC | 1.02 ± 0.039 |
| GCTACTTTGG | 1.06 ± 0.048 |
| GCTAGATCGT | 0.969 ± 0.033 |
| GCTAGGAACT | 0.979 ± 0.019 |
| GCTAGGAGTA | 0.987 ± 0.0091 |

| Sequence | switch fluorescence ratio |
| --- | --- |
| GCTAGGCCTC | 1.01 ± 0.038 |
| GCTAGGCTGG | 0.97301 ± 0.0002 |
| GCTAGGGCTT | 1.01 ± 0.062 |
| GCTAGTAAGT | 0.9819 ± 0.0063 |
| GCTAGTGCTT | 0.956 ± 0.011 |
| GCTAGTGGC | 0.985 ± 0.079 |
| GCTAGTTTCG | 1.03 ± 0.019 |
| GCTATATGTG | 0.98 ± 0.069 |
| GCTATATTGG | 0.9933 ± 0.0091 |
| GCTATGGTGC | 1.026 ± 0.0038 |
| GCTATTAGGA | 0.984 ± 0.033 |
| GCTATTATAC | 1.47 ± 0.0019 |
| GCTATTGGGA | 1.01 ± 0.022 |
| GCTATTTGTA | 1.01 ± 0.023 |
| GCTCAAGCCT | 1.06 ± 0.028 |
| GCTCAATCTA | 1.01 ± 0.006 |
| GCTCATTTCG | 1.02 ± 0.042 |
| GCTCCAATAA | 2.49 ± 0.047 |
| GCTCCAATTT | 1.07 ± 0.034 |
| GCTCCGGCGG | 1.24 ± 0.045 |
| GCTCCGTGGG | 1.93 ± 0.1 |
| GCTCCTGTTA | 1.11 ± 0.027 |
| GCTCGAGATT | 1.026 ± 0.0027 |
